Measured values taken from patent publication US20090062199A1, “Nogo Receptor Polypeptides and Polypeptide Fragments and Uses Thereof” (Biogen Idec MA Inc., priority 2005, published 2009).

Columns and labels:
TAJ [1] = target: T1, TAJ (UniProt Q9NS68 30-170, limits assumed); assay: ELISA; reference is NgR1(310)
T1 construct: also called TROY
T1 sequence (looked up): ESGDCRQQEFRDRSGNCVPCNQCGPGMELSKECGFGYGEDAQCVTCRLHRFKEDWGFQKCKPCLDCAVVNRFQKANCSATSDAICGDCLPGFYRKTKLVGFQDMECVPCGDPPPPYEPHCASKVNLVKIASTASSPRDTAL

p75 = target: T2, p75 (Homo sapiens, UniProt P08138); assay: ELISA binding of FL-NgR1 to p75; conditions: compared with truncated versions containing the LRR region alone
T2 sequence (P08138 29-427): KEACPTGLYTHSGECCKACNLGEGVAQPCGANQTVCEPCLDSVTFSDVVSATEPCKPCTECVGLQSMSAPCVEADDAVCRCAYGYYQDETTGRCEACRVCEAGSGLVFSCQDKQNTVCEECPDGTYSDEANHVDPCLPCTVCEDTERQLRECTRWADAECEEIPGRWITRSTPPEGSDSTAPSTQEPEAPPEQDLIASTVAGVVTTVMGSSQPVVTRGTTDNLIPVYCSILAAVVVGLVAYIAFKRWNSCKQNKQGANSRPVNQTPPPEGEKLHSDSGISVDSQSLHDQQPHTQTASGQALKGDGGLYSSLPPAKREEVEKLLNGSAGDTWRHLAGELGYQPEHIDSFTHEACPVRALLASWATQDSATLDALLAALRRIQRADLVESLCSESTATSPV

OMgp = target: T3, OMgp (Homo sapiens, UniProt P23515); assay: ELISA binding of FL-NgR1 to OMgp; conditions: compared with truncated versions containing the LRR region alone
T3 sequence (P23515 25-417): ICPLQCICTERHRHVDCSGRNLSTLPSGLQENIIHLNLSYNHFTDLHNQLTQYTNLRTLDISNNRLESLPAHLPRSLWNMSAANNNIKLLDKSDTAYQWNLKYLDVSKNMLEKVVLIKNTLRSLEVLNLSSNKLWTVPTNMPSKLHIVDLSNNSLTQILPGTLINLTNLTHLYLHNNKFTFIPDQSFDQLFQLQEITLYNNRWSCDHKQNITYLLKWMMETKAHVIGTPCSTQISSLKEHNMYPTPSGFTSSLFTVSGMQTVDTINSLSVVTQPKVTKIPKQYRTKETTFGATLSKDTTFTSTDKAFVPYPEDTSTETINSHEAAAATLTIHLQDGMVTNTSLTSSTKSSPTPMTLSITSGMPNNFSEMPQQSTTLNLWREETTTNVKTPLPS

Nogo-66 = target: T4, Nogo-66 (Homo sapiens, UniProt Q9NQC3); assay: ELISA binding of FL-NgR1 to Nogo-66; conditions: compared with truncated versions containing the LRR region alone
T4 construct: Nogo-66 is a 66 amino acid peptide from NogoA
T4 sequence (Q9NQC3 1055-1120 limits assumed): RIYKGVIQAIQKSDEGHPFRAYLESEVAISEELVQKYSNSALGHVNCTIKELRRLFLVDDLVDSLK

AP-Lingo-1 = assay: Competition ELISA, anti-NgR1 antibody blocking binding of AP-Lingo-1 to FL-NgR1; conditions: anti-NgR1 antibody used to block binding; FIG. 2C
From the text: (§1) On size exclusion chromatography (SEC), the protein eluted as a single peak with a mass of about 80 kDa (FIG. 2B). […] See, for e.g., Shao, et al., (2005), Neuron 45, 353-359. A 10-fold higher affinity for Taj was seen using FL-NgR1 compared with the truncated versiox NgR1 (310) containing just the LRR region as described in Id.

LINGO-1 = target: T5, LINGO-1 (Homo sapiens, UniProt Q96FE5); assay: ELISA binding of FL-NgR1 to LINGO-1; conditions: compared with truncated versions containing the LRR region alone
T5 sequence (Q96FE5 42-620): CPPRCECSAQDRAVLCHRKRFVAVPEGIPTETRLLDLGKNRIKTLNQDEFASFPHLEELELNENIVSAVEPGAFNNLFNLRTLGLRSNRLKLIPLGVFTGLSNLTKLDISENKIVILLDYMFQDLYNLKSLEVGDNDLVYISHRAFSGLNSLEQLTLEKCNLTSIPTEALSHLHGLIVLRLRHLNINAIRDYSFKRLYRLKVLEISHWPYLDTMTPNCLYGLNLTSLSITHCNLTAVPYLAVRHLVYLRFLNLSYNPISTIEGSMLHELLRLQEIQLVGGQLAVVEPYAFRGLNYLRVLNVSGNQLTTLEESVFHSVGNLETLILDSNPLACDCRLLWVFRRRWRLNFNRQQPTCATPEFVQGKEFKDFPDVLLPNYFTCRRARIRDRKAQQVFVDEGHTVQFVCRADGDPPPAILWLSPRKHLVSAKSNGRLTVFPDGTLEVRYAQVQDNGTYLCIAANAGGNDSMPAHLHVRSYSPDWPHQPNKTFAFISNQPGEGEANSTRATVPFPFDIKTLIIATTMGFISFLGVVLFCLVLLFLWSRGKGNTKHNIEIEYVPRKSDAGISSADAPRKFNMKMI
From the text: as §1

AP-OMgp = assay: Competition ELISA, anti-NgR1 antibody blocking binding of AP-OMgp to FL-NgR1; conditions: anti-NgR1 antibody used to block binding; FIG. 2C
From the text: as §1

TAJ [2] = target: T6, TAJ (Homo sapiens, UniProt Q9NS68); assay: ELISA binding of FL-NgR1 to TAJ; conditions: compared with truncated versions containing the LRR region alone
T6 sequence (Q9NS68 30-423): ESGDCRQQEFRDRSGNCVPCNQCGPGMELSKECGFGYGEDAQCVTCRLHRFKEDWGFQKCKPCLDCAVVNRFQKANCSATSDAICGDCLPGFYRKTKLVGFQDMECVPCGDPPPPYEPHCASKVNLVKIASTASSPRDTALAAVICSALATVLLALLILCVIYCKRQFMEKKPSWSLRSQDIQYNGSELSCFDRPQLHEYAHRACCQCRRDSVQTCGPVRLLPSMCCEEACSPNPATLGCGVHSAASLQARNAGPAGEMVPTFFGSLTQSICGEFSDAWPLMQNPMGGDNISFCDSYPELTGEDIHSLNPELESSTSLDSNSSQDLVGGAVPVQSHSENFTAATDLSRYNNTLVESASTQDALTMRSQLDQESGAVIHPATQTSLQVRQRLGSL
From the text: as §1

B1: Human NgR1, excluding the GPI domain (FL-NgR1, residues 27-438) with a flag tag at its N-terminus (receptor)
chain: CPGACVCYNEPKVTTSCPQQGLQAVPVGIPAASQRIFLHGNRISHVPAASFRACRNLTILWLHSNVLARIDAAAFTGLALLEQLDLSDNAQLRSVDPATFHGLGRLHTLHLDRCGLQELGPGLFRGLAALQYLYLQDNALQALPDDTFRDLGNLTHLFLHGNRISSVPERAFRGLHSLDRLLLHQNRVAHVHPHAFRDLGRLMTLYLFANNLSALPTEALAPLRALQYLRLNDNPWVCDCRARPLWAWLQKFRGSSSEVPCSLPQRLAGRDLKRLAANDLQGCAVATGPYHPIWTGRATDEEPLGLPKCCQPDAADKASVLEPGRPASAGNALKGRVPPGDSPPGNGSGPRHINDSPFGTLPGSAEPPLTAVRPEGSEPPGFPTSGPRRRPGCSRKNRTRSHCRLGQAGSGG
notes: Soluble protein expressed in CHO cells; also called human FL-NgR1; NgRI; not shown: N-terminal flag tag
For B1, the “fold higher affinity compared with NgR1 (310)” value (TAJ [1]) was 10 fold.

B2: FL-NgR1: Human NgR1 excluding the GPI domain, residues 27-438 (SEQ ID NO:22), N-terminal flag tag, expressed in CHO cells (protein)
chain: B1 chain
modifications: N-terminal FLAG tag; Human NgR-1
With B2 the “binding in an ELISA assay to p75” value (p75) was “as well as or better than truncated versions containing the LRR region alone”, the “binding in an ELISA assay to OMgp” value (OMgp) was “as well as or better than truncated versions containing the LRR region alone” and the “binding in an ELISA assay to Nogo-66” value (Nogo-66) was “as well as or better than truncated versions containing the LRR region alone”. The “binding of AP-Lingo-1 in competition ELISA” value (AP-Lingo-1) was “verified the activities of FL-NgR1”, the “binding in an ELISA assay to LINGO-1” value (LINGO-1) was “as well as or better than truncated versions containing the LRR region alone” and the “binding of AP-OMgp in competition ELISA” value (AP-OMgp) was “verified the activities of FL-NgR1”. The “binding in an ELISA assay to TAJ” value (TAJ [2]) was “as well as or better than truncated versions containing the LRR region alone”.
